To fix the notation:
B1: TRIM14 (parent)
chain: REQADSCREQLDIMNDLSNRVWSI
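Also: lentivirally expressed fusions sorted by FACS into six bins by GFP to DsRed ratio, PSI derived from sequencing read proportions per bin multiplied by bin number.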

The variants in the data set derive from B1. The experiment in a line: protein stability index of a GFP-peptide fusion (GPS, HEK-293T) (PSI 1-6); higher = more stable. The following applies: c terminus: a fixed tail appended.
Turning to REQADSCREHLDIMNDLSNRVWSI [Q10H], the protein stability index is 2.03.
For REQADSCREYLDIMNDLSNRVWSI [Q10Y], the protein stability index was found to be 2.
Take REQADSCRENLDIMNDLSNRVWSI [Q10N]: the protein stability index is 2.24.
As for REQADSCREDLDIMNDLSNRVWSI [Q10D], the figure is 2.74; as for REQADSCRECLDIMNDLSNRVWSI [Q10C], 2.24.
As for REQADSCREFLDIMNDLSNRVWSI [Q10F], the figure is 2.18; as for REQADSCREALDIMNDLSNRVWSI [Q10A], 1.74.
As for REQADSCREGLDIMNDLSNRVWSI [Q10G], the figure is 2.18.
In the case of REQADSCREWLDIMNDLSNRVWSI [Q10W], the protein stability index was 1.98.
As to REQADSCREVLDIMNDLSNRVWSI [Q10V], the protein stability index came to 1.57.
Consider REQADSCREMLDIMNDLSNRVWSI [Q10M], for which the protein stability index was determined as 1.81.
For REQADSCRESLDIMNDLSNRVWSI [Q10S], the protein stability index was determined as 1.87.
Take REQADSCREPLDIMNDLSNRVWSI [Q10P]: the protein stability index stood at 2.
As for REQADSCREILDIMNDLSNRVWSI [Q10I], the protein stability index came out at 2.63.
Then REQADSCREELDIMNDLSNRVWSI [Q10E], with 2.21.
As for REQADSCRETLDIMNDLSNRVWSI [Q10T], the figure is 2.39; as for REQADSCREKLDIMNDLSNRVWSI [Q10K], 2.16; as for REQADSCRERLDIMNDLSNRVWSI [Q10R], 2.38.
REQADSCREQLDIMNDLVNRVWSI [S18V]: the protein stability index turned out to be 1.99.
For the variant REQADSCREQLDIMNDLENRVWSI [S18E], the protein stability index is 2.75.
For the variant REQADSCREQLDIMNDLGNRVWSI [S18G], the protein stability index amounted to 1.83.
As for REQADSCREQLDIMNDLPNRVWSI [S18P], the figure is 2.35.
As for REQADSCREQLDIMNDLANRVWSI [S18A], the figure is 2.29; as for REQADSCREQLDIMNDLYNRVWSI [S18Y], 2.07.
In the case of REQADSCREQLDIMNDLWNRVWSI [S18W], the protein stability index was found to be 2.21.
In the case of REQADSCREQLDIMNDLNNRVWSI [S18N], the protein stability index was 2.14.
As for REQADSCREQLDIMNDLCNRVWSI [S18C], the figure is 2.3.
Take REQADSCREQLDIMNDLMNRVWSI [S18M]: the protein stability index amounted to 2.01.
Turning to REQADSCREQLDIMNDLHNRVWSI [S18H], the protein stability index is 1.77.
Then REQADSCREQLDIMNDLINRVWSI [S18I], with 2.2.
In the case of REQADSCREQLDIMNDLKNRVWSI [S18K], the protein stability index is 1.87.
Regarding REQADSCREQLDIMNDLTNRVWSI [S18T], the protein stability index amounted to 2.05.
Then REQADSCREQLDIMNDLLNRVWSI [S18L], with 1.73.
As for REQADSCREQLDIMNDLRNRVWSI [S18R], the protein stability index turned out to be 1.64.
Then REQADSCREQLDIMNDLFNRVWSI [S18F], with 1.48; and REQADSCREQLDIMNDLDNRVWSI [S18D], with 2.8; and REQADSCREQLDIMNDLQNRVWSI [S18Q], with 1.63.
Regarding REQADSCREQLDIANDLSNRVWSI [M14A], the protein stability index was found to be 2.07.
As for REQADSCREQLDINNDLSNRVWSI [M14N], the figure is 2.98; as for REQADSCREQLDIKNDLSNRVWSI [M14K], 2.33; as for REQADSCREQLDIWNDLSNRVWSI [M14W], 1.78.
As for REQADSCREQLDIGNDLSNRVWSI [M14G], the figure is 2.26; as for REQADSCREQLDIVNDLSNRVWSI [M14V], 2.26.
Then REQADSCREQLDIDNDLSNRVWSI [M14D], with 3.01; and REQADSCREQLDISNDLSNRVWSI [M14S], with 2.81.
In the case of REQADSCREQLDIQNDLSNRVWSI [M14Q], the protein stability index was determined as 2.79.
REQADSCREQLDIYNDLSNRVWSI [M14Y]: the protein stability index is 1.72.
As for REQADSCREQLDIPNDLSNRVWSI [M14P], the figure is 2.93; as for REQADSCREQLDIFNDLSNRVWSI [M14F], 1.76.
As for REQADSCREQLDIHNDLSNRVWSI [M14H], the figure is 2.45.
Then REQADSCREQLDILNDLSNRVWSI [M14L], with 1.99; and REQADSCREQLDIRNDLSNRVWSI [M14R], with 2.03.
In the case of REQADSCREQLDITNDLSNRVWSI [M14T], the protein stability index stood at 2.5.
As for REQADSCREQLDIINDLSNRVWSI [M14I], the protein stability index amounted to 2.2.
As to REQADSCREQLDICNDLSNRVWSI [M14C], the protein stability index came out at 2.36.
As for REQADSCREQLDIENDLSNRVWSI [M14E], the figure is 2.81; as for REQADSCREQLHIMNDLSNRVWSI [D12H], 2.05; as for REQADSCREQLTIMNDLSNRVWSI [D12T], 2.53.
As for REQADSCREQLNIMNDLSNRVWSI [D12N], the figure is 1.6.
With REQADSCREQLIIMNDLSNRVWSI [D12I], the protein stability index worked out at 2.24.
Then REQADSCREQLWIMNDLSNRVWSI [D12W], with 2.21; and REQADSCREQLFIMNDLSNRVWSI [D12F], with 2.71; and REQADSCREQLVIMNDLSNRVWSI [D12V], with 1.9.
As for REQADSCREQLKIMNDLSNRVWSI [D12K], the figure is 1.92.
As to REQADSCREQLEIMNDLSNRVWSI [D12E], the protein stability index is 2.31.
Then REQADSCREQLRIMNDLSNRVWSI [D12R], with 2.06.
As for REQADSCREQLGIMNDLSNRVWSI [D12G], the protein stability index came to 1.77.
Then REQADSCREQLYIMNDLSNRVWSI [D12Y], with 1.96; and REQADSCREQLCIMNDLSNRVWSI [D12C], with 1.84.
On to REQADSCREQLPIMNDLSNRVWSI [D12P], for which the protein stability index was determined as 2.31.
As for REQADSCREQLSIMNDLSNRVWSI [D12S], the protein stability index was determined as 2.21.
Then REQADSCREQLAIMNDLSNRVWSI [D12A], with 2.05.
As for REQADSCREQLQIMNDLSNRVWSI [D12Q], the figure is 1.59; as for REQADSCREQLMIMNDLSNRVWSI [D12M], 1.43.
As for REQADSCREQQDIMNDLSNRVWSI [L11Q], the figure is 3.17.
In the case of REQADSCREQWDIMNDLSNRVWSI [L11W], the protein stability index turned out to be 1.46.
Then REQADSCREQADIMNDLSNRVWSI [L11A], with 2.1.
Then REQADSCREQKDIMNDLSNRVWSI [L11K], with 2.38; and REQADSCREQHDIMNDLSNRVWSI [L11H], with 2.24; and REQADSCREQTDIMNDLSNRVWSI [L11T], with 3.1.
REQADSCREQIDIMNDLSNRVWSI [L11I]: the protein stability index is 2.53.
Consider REQADSCREQRDIMNDLSNRVWSI [L11R], for which the protein stability index worked out at 3.11.
For the variant REQADSCREQCDIMNDLSNRVWSI [L11C], the protein stability index was 2.17.
Then REQADSCREQGDIMNDLSNRVWSI [L11G], with 2.62; and REQADSCREQPDIMNDLSNRVWSI [L11P], with 2.53; and REQADSCREQNDIMNDLSNRVWSI [L11N], with 2.36.
Then REQADSCREQFDIMNDLSNRVWSI [L11F], with 1.87; and REQADSCREQSDIMNDLSNRVWSI [L11S], with 3.03; and REQADSCREQVDIMNDLSNRVWSI [L11V], with 2.19.
As for REQADSCREQDDIMNDLSNRVWSI [L11D], the figure is 3.08; as for REQADSCREQYDIMNDLSNRVWSI [L11Y], 1.73.
In the case of REQADSCREQEDIMNDLSNRVWSI [L11E], the protein stability index is 3.9.
As for REQADSCREQMDIMNDLSNRVWSI [L11M], the figure is 2.13; as for REQADSCREQLDIMNDDSNRVWSI [L17D], 3.18.

The values above are taken from the supplement of paper PMC10567573.
